Assay results as given in paper PMC3796550, “Phosphorylation of FOXP3 by LCK Downregulates MMP9 Expression and Represses Cell Invasion” (PLoS ONE, 2013).

B1: MBP-FOXP3 ΔFKH (domain or fragment, human, UniProt Q9BZS1 1-332, looked up)
chain: MPNPRPGKPSAPSLALGPSPGASPSWRAAPKASDLLGARGPGGTFQGRDLRGGAHASSSSLNPMPPSQLQLPTLPLVMVAPSGARLGPLPHLQALLQDRPHFMHQLSTVDAHARTPVLQVHPLESPAMISLTPPTTATGVFSLKARPGLPPGINVASLEWVSREPALLCTFPNPSAPRKDSTLSAVPQSSYPLLANGVCKWPGCEKVFEEPEDFLKHCQADHLLDEKGRAQCLLQREMVQSLEQQLVLEKEKLSAMQAHLAGKMALTKASSVASSDKGSCCIVAAGSQGPVVPAWSGPREAPDSLFAVRRHLWGSHGNSTFPEFLHNMDYFK
notes: Forkhead box P3 (FOXP3), human, fragment with a truncated forkhead domain, amino acids 1-332; Cloned into pMAL-c2; this vector is known to place MBP at the N-terminus (surmised)
B2: MBP-FOXP3-Full (natural protein, human, UniProt Q9BZS1 1-431, looked up)
chain: MPNPRPGKPSAPSLALGPSPGASPSWRAAPKASDLLGARGPGGTFQGRDLRGGAHASSSSLNPMPPSQLQLPTLPLVMVAPSGARLGPLPHLQALLQDRPHFMHQLSTVDAHARTPVLQVHPLESPAMISLTPPTTATGVFSLKARPGLPPGINVASLEWVSREPALLCTFPNPSAPRKDSTLSAVPQSSYPLLANGVCKWPGCEKVFEEPEDFLKHCQADHLLDEKGRAQCLLQREMVQSLEQQLVLEKEKLSAMQAHLAGKMALTKASSVASSDKGSCCIVAAGSQGPVVPAWSGPREAPDSLFAVRRHLWGSHGNSTFPEFLHNMDYFKFHNMRPPFTYATLIRWAILEAPEKQRTLNEIYHWFTRMFAFFRNHPATWKNAIRHNLSLHKCFVRVESEKGAVWTVDELEFRKKRSQRPSRCSNPTPGP
notes: Forkhead box P3 (FOXP3), human, full length, amino acids 1-431; Cloned into pMAL-c2 (BamHI/SalI); also called MBP-FOXP3 WT

Target: T1, His-LCK (human, UniProt P06239 1-509)
T1 construct: Lymphocyte-specific protein tyrosine kinase (LCK), human, full length; Cloned into pET-32a (BamHI/XhoI); also called Recombinant His-tagged LCK
T1 sequence (P06239 whole entry): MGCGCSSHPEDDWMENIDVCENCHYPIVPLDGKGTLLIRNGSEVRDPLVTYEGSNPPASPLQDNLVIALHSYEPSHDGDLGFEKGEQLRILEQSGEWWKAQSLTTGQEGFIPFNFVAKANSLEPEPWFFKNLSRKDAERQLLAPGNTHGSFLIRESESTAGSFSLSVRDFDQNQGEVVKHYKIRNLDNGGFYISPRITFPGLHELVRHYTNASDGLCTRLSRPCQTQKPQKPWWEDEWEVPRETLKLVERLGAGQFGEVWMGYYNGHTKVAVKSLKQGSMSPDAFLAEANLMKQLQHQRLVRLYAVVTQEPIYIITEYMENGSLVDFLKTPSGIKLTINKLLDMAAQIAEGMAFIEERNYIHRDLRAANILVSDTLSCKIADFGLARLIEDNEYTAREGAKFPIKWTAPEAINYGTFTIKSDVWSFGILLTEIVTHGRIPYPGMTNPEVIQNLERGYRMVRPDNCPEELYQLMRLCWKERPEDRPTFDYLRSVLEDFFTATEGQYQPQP
Test: pull-down; MBP fusion proteins bound to amylose resin, His-LCK incubated with 50 μL beads in 20 mM HEPES pH 7.4, 0.5% NP-40, 100 mM NaCl for 2 h at 4 °C; eluted with 10 mM maltose; immunoblot with anti-His-Tag and anti-MBP
Conditions: both partners purified

Binder | binding result
B1 | binds
B2 | binds
